Non-standard residues stand in square brackets, D forms with d. No end group written: not given here.
Molecular target: CCR2 on mouse monocytes (mouse, UniProt P51683 1-373)
Assay: cell-based or functional assay

Sequence of CCR2 on mouse monocytes (P51683 whole entry): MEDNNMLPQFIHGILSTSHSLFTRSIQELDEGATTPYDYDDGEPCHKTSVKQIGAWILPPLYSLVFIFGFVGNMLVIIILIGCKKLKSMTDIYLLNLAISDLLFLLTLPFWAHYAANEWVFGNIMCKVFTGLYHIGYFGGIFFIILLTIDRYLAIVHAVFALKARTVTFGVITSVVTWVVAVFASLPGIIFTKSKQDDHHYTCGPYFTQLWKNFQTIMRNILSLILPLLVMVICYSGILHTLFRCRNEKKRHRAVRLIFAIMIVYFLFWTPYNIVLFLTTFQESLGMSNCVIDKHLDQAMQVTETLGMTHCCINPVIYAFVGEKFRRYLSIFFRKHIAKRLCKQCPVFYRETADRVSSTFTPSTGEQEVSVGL

inhibition of migration of mouse monocytes and classical monocytes, IC50: 2000 nM
Binder: [dL]G[dT][dF][dL][dK][dC] [ECL1 (C) inverso]

Reference: US20170051040A1 (UNIVERSITE PIERRE ET MARIE CURIE PARIS 6, published 2017)
